The target in experiment [1] is T1, SARS-CoV-2 RBD, Omicron strain (B.1.1.529 (BA.1)) (SARS-CoV-2 Omicron strain B.1.1.529 …, UniProt P0DTC2 319-541).
T1 construct: also called Omicron-derived RBD; RBD protein (Omicron type)
Kind of experiment: ELISA of culture supernatant on Omicron RBD (Fig. 2-1). (In general: An ELISA detects its analyte on a solid surface through an enzyme-linked reagent.)

Experiment [2] concerns the target T1, SARS-CoV-2 RBD, Omicron strain …. Kind of experiment: ELISA on Omicron RBD (supernatant, Fig. 2-1; 300 ng/ml, Fig. 2-2).
For experiment [3] the target is unchanged. Kind of experiment: ELISA on Omicron RBD, 300 ng/ml antibody (Fig. 2-2).

Substitutions are numbered along the chain they refer to. Names may count otherwise.

The text below walks through data of patent publication JP2024044204A (dated 2024).

B1: 28G_1-GN (UT28K S55G) (antibody, V domains shown)
VH: QMQLVQSGPEVKKPGTSVKVSCKASGFTFSISAVQWVRQARGQRLEWIGWIVVGGGNTNYAQKFQERVTITRDMSTSTAYMELSSLRFEDTAVYYCAAPYCGGDCSDGFDIWGQGTMVTVSS
VL: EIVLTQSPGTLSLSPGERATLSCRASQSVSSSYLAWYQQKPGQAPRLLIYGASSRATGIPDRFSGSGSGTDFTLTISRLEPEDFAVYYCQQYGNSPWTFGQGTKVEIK
Consider B1, for which the binding result in experiment [1] is reported as “no binding”.

B2: 28G_6-GR (UT28K S55G, N57R) (antibody, V domains shown)
VH: B1 VH with N57R
VL: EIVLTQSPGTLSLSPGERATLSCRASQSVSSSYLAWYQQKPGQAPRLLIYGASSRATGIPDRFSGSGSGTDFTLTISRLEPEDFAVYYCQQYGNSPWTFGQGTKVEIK
For the molecule B2, the binding result in experiment [1] was “no binding”.

B3: 28G_5-SG (UT28K N57G) (antibody, V domains shown)
VH: B1 VH with G55S, N57G
VL: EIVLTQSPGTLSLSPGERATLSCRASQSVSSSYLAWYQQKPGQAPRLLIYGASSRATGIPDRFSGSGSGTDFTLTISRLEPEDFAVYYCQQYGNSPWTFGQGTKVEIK
With B3, the binding result in experiment [2] is “no binding (tested: 300 ng/ml (Fig. 2-2))”.

B4: 4_12-SS/WT (UT28K N57S) (antibody, V domains shown)
VH: B1 VH with G55S, N57S
VL: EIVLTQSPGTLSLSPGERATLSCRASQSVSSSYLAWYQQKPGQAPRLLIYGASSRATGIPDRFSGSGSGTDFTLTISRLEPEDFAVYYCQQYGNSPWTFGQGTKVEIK
With B4, the binding result in experiment [2] is recorded as “no binding (tested: 300 ng/ml (Fig. 2-2))”.

B5: 28G_8-GG (UT28K S55G, N57G) (antibody, V domains shown)
VH: B1 VH with N57G
VL: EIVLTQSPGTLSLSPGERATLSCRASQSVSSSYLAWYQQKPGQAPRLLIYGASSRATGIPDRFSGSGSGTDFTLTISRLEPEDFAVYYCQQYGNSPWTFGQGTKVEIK
Turning to B5, the binding result in experiment [1] is reported as “no binding”.

B6: 28G_3-SR (UT28K N57R) (antibody, V domains shown)
VH: B1 VH with G55S, N57R
VL: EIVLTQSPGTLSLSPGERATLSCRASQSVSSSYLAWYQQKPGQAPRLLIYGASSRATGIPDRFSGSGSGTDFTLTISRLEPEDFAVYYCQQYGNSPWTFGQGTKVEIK
For the molecule B6, the binding result in experiment [2] is recorded as “no binding (tested: 300 ng/ml (Fig. 2-2))”.

B7: UT28K N57E (antibody, V domains shown)
VH: B1 VH with G55S, N57E
VL: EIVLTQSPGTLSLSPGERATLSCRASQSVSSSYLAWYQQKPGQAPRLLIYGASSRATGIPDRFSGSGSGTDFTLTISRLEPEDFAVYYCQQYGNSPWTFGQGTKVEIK
For the molecule B7, the binding result in experiment [3] is reported as “no binding (tested: 300 ng/ml (Fig. 2-2))”.
